The term IC50 denotes the concentration at which inhibition is half-maximal. Low readings indicate higher potency, high ones lower potency.

First the molecules themselves.
B1: oligopeptide … (aa 75-98) [SEQ ID NO: 106] (peptide)
peptide: EDPPGEEDLPGEEDLPGEEDLPEV
notes: Synthetic; cysteine added onto the C-end; C-terminal acid

Assay [1] concerns the target B1. In words: phage display panning, 5 cycles, on immobilized peptide SEQ ID NO: 106.
For assay [2], the target named is T1, monoclonal antibody M75 (MAb M75), secreted from the hybridoma VU-M75, ATCC HB 11128.
T1 construct: also called MAb 75
In words: competition ELISA: peptide in solution against immobilized GST-MN for M75.

As for ITFNAQY [phage-displayed heptapeptide of SEQ ID NO: 138 (without the added alanines), Ph.D.-7 library], the binding result in assay [1] is reported as “binds”.
Molecule B1 registered an IC50 in assay [2] of 1 ng/mL.
On to SASAPVS [phage-displayed heptapeptide of SEQ ID NO: 139 (without the added alanines), Ph.D.-7 library], for which, in assay [1], the binding result is “binds”.

B2: phage-displayed heptapeptide of SEQ ID NO: 137 (without the added alanines), Ph.D.-7 library (peptide)
peptide: KKMKRRK
notes: Residues 2-8 follow from 'after adding alanine on both sides'
Consider B2, for which the binding result in assay [1] is recorded as “binds”.

(Values after EP1832653A1 (INSTITUTE OF VIROLOGY, dated 2007).)
